How the values were obtained:
MS2 coat protein [1] = assay: apparent KD of MS2 coat protein; designed switch direction (-1 OFF switch, 1 ON switch): 1; higher = weaker reporter binding; conditions: Eterna round: R98
Method: (§1)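 RNA-MaP: designed FMN/MS2 RNA switches (84 nt design region) are transcribed on-chip within common flanks and titrated with SNAP-549-labelled MS2 coat protein (about 1-3000 nM) in 100 mM Tris pH 7.5, 80 mM KCl, 4 mM MgCl2, without or with 200 uM FMN. Median apparent KD per design; activation ratio = KD,OFF / KD,ON.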

MS2 coat protein [2] = assay: apparent KD of MS2 coat protein; higher = weaker reporter binding; conditions: Eterna round: R101
Method: as §1

MS2 coat protein [3] = assay: apparent KD of MS2 coat protein, switch ON state; designed switch direction (-1 OFF switch, 1 ON switch): 1; higher = weaker reporter binding; conditions: FMN input: 0 or 200 uM; Eterna round: R93 (includes R88 designs)
How it was run: (§2)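 Designed RNA switches were transcribed on-chip from Illumina sequencing clusters and titrated with SNAP-549-labelled MS2 coat protein in twofold steps from 0.7 or 1.5 nM up to 3 µM. Each step lasted 0.8–1.5 h at first and 10–20 min by the end, in 100 mM Tris-HCl pH 7.5, 80 mM KCl and 4 mM MgCl2, without or with constant ligand. Apparent KD is the median, for each design, of fits to normalised cluster binding curves.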

MS2 coat protein [4] = assay: apparent KD of MS2 coat protein, switch OFF state (with FMN for OFF switches, without FMN for ON switches); designed switch direction (-1 OFF switch, 1 ON switch): 1; higher = weaker reporter binding; conditions: FMN input: 0 or 200 uM; Eterna round: R93 (includes R88 designs)
How it was run: as §2

Sequence	apparent KD of MS2 coat protein (MS2 coat protein [1]; input ligand: FMN 200 uM) [nM]	apparent KD of MS2 coat protein (MS2 coat protein [1]; input ligand: none) [nM]	other results
CAUGUCCUCACAGGAUAUGCUGGACUUUGUCCAGCAGAAGGGUGAACAUGAGGAUCACCCAUGUUGUGGACAUGUAUAUUUAAU [Denovo 12]	526	394	–
CGGAUGCAAAUAAAACAUGAGGAUCACCCAUGUGAGUCUCAUGAGGAUAUGCAGGUCAAAGACUUGCAGAAGGCAUGGCGUCCG [Mat - Same State NG 3 - JL Mod - D71]	107	1840	–
CGUGUGGCAUGAGGAUAUGGUCAGCUUUGCUGACCAGAAGGCAUGUCAAUAGACAUGAGGAUCACCCAUGUAGUUAACACACGA [Mat - Same State NG 1 - JL Mod - D23]	44	575	–
CUGAAGUCUGACCCUCGAAACAUGAGGAUCACCCAUGUAGUCAGAAGGCGAUUGUGAGCAGGAAUCGAGGAUAUGAACUAGUUU [EternaBot1300] (puzzle (switch architecture): Inverted Exclusion NG 3)	–	–	apparent KD of MS2 coat protein (MS2 coat protein [2]; input ligand: FMN 200 uM): 9.99 nM
CUUACUUUGUAGAAGGGUGACAUGAGGAUCACCCAUGUGCGUGGCCUGAAAGACCAGGGUACGCCACAGGAUAUACAAAGUAAG [Esatatina] (puzzle (switch architecture): Inverted Same State NG 2)	–	–	apparent KD of MS2 coat protein (MS2 coat protein [2]; input ligand: FMN 200 uM): 26.1 nM; apparent KD of MS2 coat protein (MS2 coat protein [2]; input ligand: none): 15.3 nM
GCAGAAGGUGCAGAGGAUCACCCUGUAAGGAUAUGCAUUAGCAAGGAUAUACAGAGGAUCACCCUGUAGAAGGUGCACUACUCU [pwkr2 ssNG3 DX.2]	420	2070	–
GCGGGCCUCACAGGAUAUCUGGUCCCGACAUGAGGAUCACCCAUGUAGGGCAGCUUAAGAAUGCCAGAGAAGGGUGACCAAUAU [Xexemaeron]	102	315	–
GCUGCUAUCGCAGGAUAUUACAUGGGAAAGAAUACAUGAGGAUCACCCAUGUAAAAGAUCAUAAAUAAGAAGGGCGAUAGCAGC [Lame State 6 - Jieux - Same State NG 2]	159	774	–
GCUGUCGCAUGAGGAUAUGGUCAGCUUUGCUGACCAGAAGGCAUGUCGAUAGACAUGAGGAUCACCCAUGUAGUAAAGACAGCA [jl-sng1-2.08 jl mod]	66.6	693	–
GGUCGUCACAUCUACAUGAGGAUCACCCAUGUCGAAAGACAUGAGGAUAUGCAUCCUAAUUGGAUGCAGAAGGCAUGGACGACC [Mat - Same State NG 3 - JL Mod - D22]	65.1	1920	–
UCACUCACGUUAGGAUAUGGAUCGGAAAACGAUCCAGAAGGAACCUGCAAACCUGAGGAUCACCCAGGUUCCAAUAACGAGUGA [SameSame 7 - Jieux - Same State NG 1]	259	368	–
UGAUUGAGAUUGUAGGAUAUUGGAAAAGCCACAUGAGGAUCACCCAUGUCAAAAAAAAAAAAAAACAAGAAGGGCGGUUUUAGUUA [Same State 2]	–	–	apparent KD of MS2 coat protein (MS2 coat protein [3]): 58.4 nM; apparent KD of MS2 coat protein (MS2 coat protein [4]): 64.5 nM
UGUUUGAGCAUAGGAUAUACUGGGAAGGUCCACAUGAGGAUCACCCAUGUAGAGGCUGUUAGACAGUAGAAGGGUGAUCCGAUA [Zariatbege]	410	9.94	–
UUAAGCCGCGGGCAGGAUAUGUAUUAAAAUACAUGAGGAUCACCCAUGUGCAGGUGUAACACCUGACAGAAGGGCCAAUCGCAGC [Ceanreerqu]	–	–	apparent KD of MS2 coat protein (MS2 coat protein [3]): 26.4 nM; apparent KD of MS2 coat protein (MS2 coat protein [4]): 228 nM
UUACGUCCCGUUUACAUGAGGAUCACCCAUGUCGAAAGAACCGAGGAUAUGCUACCUAGUUGGUAGCAGAAGGCGGAAACGUCG [salish99_SSNG3_r02_008]	42.3	25.9	–
UUUAGGAAGAGAGAGGAUAUCCAAAGGAAAACAUGAGGAUCACCCAUGUAAAAGGUAGGAAAUUGGGAGAAGGCUCAAGAGAGAG [salish99-ss2-078]	–	–	apparent KD of MS2 coat protein (MS2 coat protein [3]): 5.84 nM; apparent KD of MS2 coat protein (MS2 coat protein [4]): 16.5 nM
